Experimental data taken from the supplement of paper PMC11865577.

Key:
Assay in all cases: pull-down binding Z-score (relative to library population); higher = stronger binding
[1] = tested on: TO-N3-2 (biotin conjugate); details: RNA library: Library-2
In short: (§1)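 To score binding, a beads-only signal was subtracted, barcoded replicate probes were averaged with the highest and lowest dropped, and the value was converted to a Z-score using the library mean and standard deviation. The input was 1 μg of Cy5- or Cy3-end-labelled RNA library, heat-folded in phosphate/NaCl/KCl buffer and mixed for 60 min at 25 °C with streptavidin beads carrying 100 pmol of biotin-conjugated small molecule. Bound RNA was eluted in hot SDS and hybridised to a DNA barcode microarray at 55.5 °C for 20 h.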

[2] = tested on: TO-3-N3 (biotin conjugate); details: RNA library: Library-2
In short: as §1

[3] = tested on: G-clamp-N3 (biotin conjugate); details: RNA library: Library-1 (pre-miRNA loops + repeats)
In short: as §1

[4] = tested on: TO-3-N3-2 (biotin conjugate); details: RNA library: Library-2
In short: as §1

TO-N3 (biotin conjugate) = details: RNA library: Library-2
In short: as §1

Sequence	pull-down binding Z-score [1]	pull-down binding Z-score [2]	pull-down binding Z-score [3]	pull-down binding Z-score [4]	pull-down binding Z-score (TO-N3 (biotin conjugate))
UUGGUGUGUAUUGCCUUGUCAA [hsa-mir-1179]	-0.0369	-0.972	-0.723	-0.217	-0.924
GCUGAAACACAGUUGGUUUGUGUACACUGGC [hsa-mir-24-2]	-0.00258	-0.415	0.212	-0.521	-0.193
GUGGCUAAUCAGCUGAUGGUGCCAC [hsa-mir-4715]	-0.545	-0.0716	-0.109	-0.511	-0.26
CAGCACUGAGCAGGCAGUGUUGU [hsa-mir-4288]	0.42	-0.241	-0.48	-0.325	-0.149
AUCUGAUGUUGAAUACUCUUUAAGU [hsa-mir-1245a]	-0.685	-0.143	-1.01	-0.281	-0.322
CAGGUAGUUUUGGCAUGACUCUACUG [hsa-mir-20b]	1.44	0.0561	-0.719	-0.229	0.556
CAGAGGCUGGCUUUCCAAAACUCUG [hsa-mir-1913]	0.235	0.996	-0.379	0.266	0.884
GGAAGGGCGCCUGUGCUUCGUCC [hsa-mir-572]	0.767	0.31	0.21	-0.215	0.52
GGUGGGCCUCUGCUCUGGCCCCUCC [hsa-mir-1343]	0.301	0.0146	0.11	-0.315	0.0649
UGGAGCUAGACCACAUGGGUUCA [hsa-mir-5100]	0.244	-0.111	-0.932	-0.115	-0.131
CUCUGGUCAGUUGGGAGUCUGAG [hsa-mir-143]	0.949	-0.346	0.448	-0.014	-0.0514
CCAGUGGUUUUCCUUGACUGUG [hsa-mir-298]	0.0607	-0.421	1.54	-0.472	-0.416
GUUUGGGUGCGGUUGGGAGUCUCUAAU [hsa-mir-200c]	1.41	1.66	0.194	1.39	1.67
UGUACGCUUUAUUUGUGACGUAGG [hsa-mir-1197]	0.0488	-0.438	-0.171	-0.0204	-0.195
GAGGGGCAUGCACUGUGUUCACCCUG [hsa-mir-134]	0.807	0.47	-0.276	-0.0434	0.687
CUUGCAGAAUUAAUGGAAUGCUG [hsa-mir-676]	0.28	0.253	-1.73	0.0539	0.41
GGCGCUUCUCCUUCUGAACAGAGCGCU [hsa-mir-1251]	-0.171	-0.462	-0.609	-0.182	-0.423
CAAAUCGACUGUCCAAUGGAUUUG [hsa-mir-133a-2]	-0.536	-0.529	2.07	-0.146	-0.674
ACUACUGUACUUUACAGCUAGCAGU [hsa-mir-301a]	1.09	-0.475	0.0373	-0.244	0.303
GGGCUCGUGAUGGCUGGUGGGCCC [hsa-mir-345]	0.665	-0.497	3	-0.191	-0.356
UAUUCUCUAU [hsa-mir-2054]	-0.297	0.52	-1.01	-0.276	0.367
UGCCCUAGCGGCU [hsa-mir-4268]	-0.238	-0.212	-0.151	-0.708	-0.211
AGGCUGUCUUCAUUCCCUCUUGACCACCC [hsa-mir-6795]	0.709	1.19	-1.03	0.213	1.29
UUUGCCAUUGAAAGUAAUGGCAAA [hsa-mir-548d-2]	-1.04	-0.691	0.739	-0.422	-1.12
UUUCUGUUGUCUAAAAGAAAAGAAA [hsa-mir-527]	-0.575	-0.325	0.0533	-0.186	-0.383

Sequence	pull-down binding Z-score [1]	pull-down binding Z-score [2]	pull-down binding Z-score [3]	pull-down binding Z-score [4]	pull-down binding Z-score (TO-N3 (biotin conjugate))
GUAAGAGAGACUCUCGCUUCCUGC [hsa-mir-874]	0.462	0.0696	-1	-0.291	0.169
CAAUCAUGUAUAAUUAAAUUUGAUUG [hsa-mir-514a-1]	-1.18	-0.112	0.528	0.0139	-0.511
AAGUAGUUGGCGUCUUCAGAGACACUU [hsa-mir-643]	0.0279	0.57	-0.0629	0.0519	0.531
GUCCAUUAGGCUUUGUUAUGGAAACUUCUCCUGAUC [hsa-mir-635]	0.875	0.517	-0.608	0.607	0.6
GCGCGGGAAAGUUCGGGAACGCGCG [hsa-mir-4479]	1.72	0.386	0.488	0.246	0.854
ACUUUCUGUUUGAAAGAAAACAAAGU [hsa-mir-519e]	-0.767	-0.798	-0.167	-0.409	-0.981
UCACAAUUGCGCUACAGAACUGUUGA [hsa-mir-203b]	0.308	0.859	0.254	0.314	1.12
GAUGGAGGAAUCACAUGAAUUCAUC [hsa-mir-2115]	-0.351	-0.415	0.704	-0.362	-0.627
CGAGAAGCGCCUGCGUCUCCCAUUUUCG [hsa-mir-3944]	1.37	0.199	-1	0.16	0.763
AUUCUGGACACCAG [hsa-mir-147b]	0.326	0.0367	-0.497	0.387	0.311
GCUUAUGGGGAUAUUGUGGUUGAUCUGUUCUAUCCAGAUGAC [hsa-mir-1261]	0.626	0.283	0.854	0.0944	0.676
CAGGCCAGGGGCAGACAGUGGACAGAGAACAGUGCCCAAGACCACUG [hsa-mir-378e]	1.73	0.426	1.13	0.736	1.27
GACCUGGAUGUGUAGGAGCUAAGACACACUCCAGGGG [hsa-mir-920]	1.41	0.595	1.89	0.531	0.902
AAUGUCAGGGCCACCCCUGACCUU [hsa-mir-6837]	-0.497	-0.431	0.482	-0.382	-0.481
AACUGUGCGGCCGGCCACACCGUCACACCGGGU [hsa-mir-8083]	1.28	1.14	-0.324	0.611	1.44
CUCAGCAUGUUGAGCCCUGUCUCUGGGGAGCUGAC [hsa-mir-6505]	0.878	0.254	1.48	-0.142	0.597
CCUUCUGUAUACAUGUAUACAGGAGGAAGG [hsa-mir-4716]	0.00714	0.507	0.64	0.0583	0.495
UGAGGUUUACUAUGGAACCUCA [hsa-mir-4465]	-1.53	-0.566	0.714	-0.526	-0.958
GUUACUGUGGGAACUGGAGGUAAC [hsa-mir-132]	0.708	0.839	2.34	0.489	1.1
CUGAGCGGCUCCAUCCCCCGGCCUGCUCAU [hsa-mir-6729]	1.81	0.85	-1.11	0.224	1.14
UUCUAAUGCCAAGAA [hsa-mir-1279]	-0.306	0.835	-0.241	-0.117	0.773
AAGUCGAUUUCCAAAAGUGACUU [hsa-mir-3124]	-1.11	-0.856	-0.161	-0.588	-1.11
GCCAGUCAGCGCUCACAUUAAGGCUGAC [hsa-mir-2277]	0.0682	-0.289	-0.612	-0.0851	-0.222
CAGAGUGUGCAUGGCAGGCU [hsa-mir-7156]	0.86	0.383	-0.349	0.342	0.869
UUACUGCAGGGAUCUUAGCAGUAC [hsa-mir-583]	0.435	0.295	-0.752	0.0351	0.303

Sequence	pull-down binding Z-score [1]	pull-down binding Z-score [2]	pull-down binding Z-score [3]	pull-down binding Z-score [4]	pull-down binding Z-score (TO-N3 (biotin conjugate))
AAGCCCUACGAGAAACUGGGGUUUCUGGA [hsa-mir-765]	0.503	0.529	-1.01	0.277	0.686
UGGUAUCCUGACCG [hsa-mir-1973]	0.287	0.627	-0.747	-0.269	0.408
UGUAAGUUUGCGAUGAGACACUACA [hsa-mir-144]	0.341	0.0531	-0.844	0.297	0.405
GGUUCUCAGUCAGAACC [hsa-mir-6813]	-1.21	-0.0211	0.755	-0.346	-0.372
GGAGAUUGGAGUGGCCAGUGUUCCUAAACAAUUC [hsa-mir-4263]	0.663	0.0793	-0.451	0.226	0.387
UAAGUGUUAUAGCACUUA [hsa-mir-374a]	-1.79	-0.901	-0.753	-0.541	-1.38
CUGUGGUGGCUGCUUAUGCACCACGG [hsa-mir-105-2]	-0.626	0.62	1.15	-0.102	0.363
UUGGUGACAGCAGCAGUAGAGUUGCCAG [hsa-mir-6501]	0.272	-0.632	0.0434	-0.445	-0.35
GCUGCUGCCCCAGAGGCCCAGCAGGUGUCCAGAAC [hsa-mir-6750]	1.93	0.55	-0.884	0.49	1.18
GAGCCUGUCACAUCUCCAGACUC [hsa-mir-3925]	0.208	0.0173	-1.04	-0.227	-0.15
CGCUAGUAGUGGCG [hsa-mir-3960]	-0.869	-0.152	0.808	-0.644	-0.435
GUUUCUAAAAAAAUAAAAAGUUAAAAAAAUUUAUGUUAACGUGUAAUGUGUUUACUAAUUUUUUUUUUUUUUUUUGGAGAC [hsa-mir-3908]	-0.771	-0.27	-1.28	0.349	-0.136
GGAUCCCAGAUCAAACCAGGCCC [hsa-mir-331]	0.63	-0.36	-0.859	-0.114	-0.177
AUGUGUUGUGAUGGCACAGCGU [hsa-mir-592]	0.256	-0.831	-0.64	-0.582	-0.817
CAGCUGUUGUCUCCAGAGCAUUCCAGCUG [hsa-mir-191]	1.46	0.371	-0.433	-0.002	0.648
GACAAUAUGUAUAAUGUUCAUAAGUCAUUC [hsa-mir-384]	-0.0426	0.197	0.231	0.227	0.444
CCACAUAGGAGGGACAGCGGCCUUUCCAACAGG [hsa-mir-9500]	0.847	0.253	-0.994	0.043	0.58
GACUUGAGAUUAUAGUC [hsa-mir-3685]	-0.546	0.268	-0.369	-0.13	-0.0763
AGAGCGUGGGCUGGGGUUCAGGGACACCCUCU [hsa-mir-1229]	1.86	1.15	1.46	0.738	1.57
GGGGCUGGUUGUCUA [hsa-mir-6080]	0.516	0.297	0.388	-0.165	0.377
GUGAUAGUAAUAAAGUCUCAU [hsa-mir-135a-2]	-0.0282	-0.314	-0.286	-0.218	-0.32
UAUGACCAGGCCAUAGUAAACAUCAUA [hsa-mir-4744]	-0.124	-0.475	1.78	0.312	-0.247
CGAGUCUGAGCCUUUAAAAGCCACUCU [hsa-mir-1287]	0.586	-0.321	-1.4	-0.012	0.0262
GAGACACUC [hsa-mir-6126]	-0.469	-0.431	-0.909	-0.578	-0.502
CACAAAUAUGGCUCUUUGUG [hsa-mir-4474]	-0.657	-0.637	-0.738	-0.469	-0.809
